{
  "source": "paper doi:10.1101/2022.11.23.517751",
  "target": "VZV gB[H527P] on extracellular vesicles (EVs) from BHK-21 cells (varicella-zoster virus (VZV)) (UniProt Q4JR05)",
  "assay": "cryo-EM structure",
  "data": [
    {"substance": "VZV gB[H527P] on extracellular vesicles (EVs) from BHK-21 cells (from UniProt Q4JR05 72-931) (natural protein)", "values": [
      {"measurement": "stoichiometry N", "result": 3}
    ]}
  ]
}
